Data: publication PMC7642319, “Behavior control of membrane-less protein liquid condensates with metal ion-induced phase separation” (Nature Communications, 2020)

Biological target: T1, second SH3 domain from Nck
T1 construct: second SH3 domain of Nck; The methods say that 6His-tagged proteins were purified on Ni-IDA and that the tag could be removed with TEV protease; also called free SH3; SH3 domain proteins; source: E. coli BL21 (DE3), pET-21a, purified (Ni-IDA)
Experiment: ITC; SH3 domain in the cell, chemically synthesized peptide as titrant in the syringe; PBS pH 7.4, 25 °C; one-site binding model
Conditions: both partners purified

Row | Binder | Kd [µM]
1 | MKKTPPPVPPRTTSK [PRM(H) peptide, wild type] | 12.8
2 | MKKTPPAVAPRTTSK [P7A P9A double mutant PRM(H) peptide] | 131
3 | MEETPPPVPPRTTSK [EE mutant PRM(H) peptide (two Lys residues mutated to acidic EE)] | 3.32
4 | MKKTPPPVAPRTTSK [P9A mutant PRM(H) peptide] | 102
5 | MKKTPPAVPPRTTSK [P7A mutant PRM(H) peptide] | 19.4
6 | MKKKKTAPTPPKRS [proline-rich motif (PRM) peptide, wild type] | 379
7 | ELELTAPTPPKRS [ELEL mutant PRM peptide (four Lys residues mutated to acidic ELEL)] | 121
